# Experimental data as given in patent US20110088129A1.
# pKd: −log10 of the molar value.
# Experiments:
# [1] = molecular target: binding sites in brush border membrane vesicles (BBMV) from midguts of last instar Helicoverpa zea larvae (Helicoverpa zea); test: homologous competition, 125I-Cry1Ac on H. zea BBMV, LIGAND program
# [2] = molecular target: binding sites in brush border membrane vesicles (BBMV) from midguts of last instar Helicoverpa armigera larvae (Helicoverpa armigera); test: homologous competition, 125I-Cry1Ac on H. armigera BBMV, LIGAND program
# [3] = molecular target: binding sites in brush border membrane vesicles (BBMV) from midguts of last instar Helicoverpa armigera larvae (Helicoverpa armigera); test: direct saturation assay, labeled Cry1Ac on BBMV at the same concentration as for Cry2Ab
substance,measurement,setting,value
Cry1Ac activated toxin (trypsin-activated Cry1Ac protoxin from B. thuringiensis strain HD73) (from UniProt P05068 29-623) (ligand),pKd,[1],9.77
same,Rt (binding site concentration) (pmol/mg BBMV protein),[1],10
same,pKd,[2],10.10
same,Rt (binding site concentration) (pmol/mg BBMV protein),[2],0.96
same,fold less toxin needed for saturation than in the Cry2Ab assay,[3],4 fold
